Reference: the supplement of paper PMC9112550, “Optimization of the antimicrobial peptide Bac7 by deep mutational scanning” (BMC Biology, 2022)

The sequences below were run on Escherichia coli TOP10 (assay: shrunken log2 fold change of peptide-encoding DNA abundance (4.5 h post-induction vs induction); higher = less antimicrobial activity (less host growth inhibition)). Details: time post-induction: 4.5 h; library: site-saturation at positions 5, 18, 19, 20.
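Note: peptides expressed intracellularly from a pBAD plasmid library in pooled LB shake-flask culture, induced with 0.3% L-arabinose, DNA abundance read by NGS, three biological replicates, DESeq2 with apeglm shrinkage.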

Sequence	shrunken log2 fold change
RRIRPRPPRLPRPRPRPPCHPRP	0.0684
RRIRQRPPRLPRPRPRPQMKPRP	-0.264
RRIRKRPPRLPRPRPRPTWWPRP	0.0302
RRIRTRPPRLPRPRPRPPLFPRP	0.482
RRIRARPPRLPRPRPRPVFQPRP	0.000109
RRIRERPPRLPRPRPRPVRHPRP	0.131
RRIRSRPPRLPRPRPRPANKPRP	-0.283
RRIRWRPPRLPRPRPRPEMIPRP	0.0062
RRIRARPPRLPRPRPRPWKQPRP	0.00355
RRIRCRPPRLPRPRPRPYRDPRP	-0.16
RRIRDRPPRLPRPRPRPGNLPRP	-0.0298
RRIRERPPRLPRPRPRPRSEPRP	-0.0574
RRIRMRPPRLPRPRPRPERPPRP	0.338
RRIRDRPPRLPRPRPRPYIYPRP	-0.184
RRIRRRPPRLPRPRPRPGPNPRP	0.251
RRIRWRPPRLPRPRPRPDVWPRP	0.373
RRIRIRPPRLPRPRPRPHPYPRP	-0.0313
RRIRIRPPRLPRPRPRPQHWPRP	0.112
RRIRRRPPRLPRPRPRPLWIPRP	-0.22
RRIRCRPPRLPRPRPRPWQNPRP	-0.124
RRIRIRPPRLPRPRPRPFKRPRP	-0.446
RRIRDRPPRLPRPRPRPCMIPRP	0.28
RRIRDRPPRLPRPRPRPWKPPRP	-0.35
RRIRVRPPRLPRPRPRPGIAPRP	0.0106
RRIRNRPPRLPRPRPRPIEYPRP	-0.0134

Sequence	shrunken log2 fold change
RRIRRRPPRLPRPRPRPLISPRP	-0.111
RRIRSRPPRLPRPRPRPRMHPRP	0.173
RRIRWRPPRLPRPRPRPKQCPRP	0.31
RRIRTRPPRLPRPRPRPMEQPRP	-0.189
RRIRWRPPRLPRPRPRPDNGPRP	0.0563
RRIRYRPPRLPRPRPRPDRWPRP	-0.118
RRIRPRPPRLPRPRPRPKHFPRP	0.328
RRIRIRPPRLPRPRPRPHIPPRP	-0.482
RRIRHRPPRLPRPRPRPMKGPRP	0.081
RRIRMRPPRLPRPRPRPYWPPRP	-0.311
RRIRLRPPRLPRPRPRPFEWPRP	-0.151
RRIRWRPPRLPRPRPRPRIQPRP	0.273
RRIRERPPRLPRPRPRPKVMPRP	0.0306
RRIRQRPPRLPRPRPRPKCNPRP	-0.472
RRIRRRPPRLPRPRPRPWTSPRP	-0.0576
RRIRCRPPRLPRPRPRPITQPRP	-0.0791
RRIRDRPPRLPRPRPRPHYYPRP	-0.236
RRIRHRPPRLPRPRPRPCDRPRP	-0.239
RRIRARPPRLPRPRPRPREEPRP	0.579
RRIRWRPPRLPRPRPRPAILPRP	0.0915
RRIRARPPRLPRPRPRPNWMPRP	0.0981
RRIRERPPRLPRPRPRPVANPRP	-0.068
RRIRWRPPRLPRPRPRPPNSPRP	0.39
RRIRQRPPRLPRPRPRPGLSPRP	0.0405
RRIRRRPPRLPRPRPRPNRAPRP	3.1

Sequence	shrunken log2 fold change
RRIRNRPPRLPRPRPRPGIHPRP	0.0285
RRIRLRPPRLPRPRPRPNGRPRP	-0.192
RRIRIRPPRLPRPRPRPNNGPRP	-0.589
RRIRNRPPRLPRPRPRPSGFPRP	0.0185
RRIRPRPPRLPRPRPRPIAKPRP	0.0454
RRIRFRPPRLPRPRPRPNFEPRP	-0.0264
RRIRYRPPRLPRPRPRPSHRPRP	-0.479
RRIRNRPPRLPRPRPRPLHPPRP	0.0757
RRIRTRPPRLPRPRPRPPKVPRP	0.286
RRIRGRPPRLPRPRPRPAYPPRP	-0.0884
RRIRIRPPRLPRPRPRPNRAPRP	1.1
RRIRTRPPRLPRPRPRPGKYPRP	-0.755
RRIRKRPPRLPRPRPRPRFPPRP	0.647
RRIRFRPPRLPRPRPRPYLGPRP	-0.11
RRIRARPPRLPRPRPRPIMLPRP	-0.43
RRIRLRPPRLPRPRPRPLIYPRP	-0.832
RRIRGRPPRLPRPRPRPRKNPRP	0.74
RRIRNRPPRLPRPRPRPALCPRP	-0.0208
RRIRFRPPRLPRPRPRPSECPRP	-0.472
RRIRVRPPRLPRPRPRPVRFPRP	0.391
RRIRVRPPRLPRPRPRPRWPPRP	0.534
RRIRRRPPRLPRPRPRPLITPRP	-0.0767
RRIRERPPRLPRPRPRPMHWPRP	-0.0407
RRIRSRPPRLPRPRPRPVVVPRP	0.1
RRIRLRPPRLPRPRPRPYQQPRP	-0.18

Sequence	shrunken log2 fold change
RRIRDRPPRLPRPRPRPTLRPRP	0.129
RRIRNRPPRLPRPRPRPALEPRP	0.025
RRIRQRPPRLPRPRPRPCVWPRP	0.213
RRIRKRPPRLPRPRPRPMPHPRP	0.274
RRIRWRPPRLPRPRPRPWPTPRP	0.336
RRIRNRPPRLPRPRPRPHCVPRP	0.0245
RRIRVRPPRLPRPRPRPTMRPRP	0.799
RRIRHRPPRLPRPRPRPEVSPRP	-0.0122
RRIRIRPPRLPRPRPRPKDAPRP	0.176
RRIRYRPPRLPRPRPRPWDRPRP	-0.103
RRIRHRPPRLPRPRPRPEPGPRP	-0.044
RRIRERPPRLPRPRPRPAPLPRP	0.324
RRIRPRPPRLPRPRPRPGDWPRP	0.432
RRIRLRPPRLPRPRPRPAHDPRP	0.189
RRIRPRPPRLPRPRPRPIAPPRP	0.265
RRIRWRPPRLPRPRPRPLTQPRP	0.307
RRIRPRPPRLPRPRPRPSFVPRP	-0.436
RRIRGRPPRLPRPRPRPFMIPRP	-0.0383
RRIRSRPPRLPRPRPRPFQDPRP	-0.01
RRIRARPPRLPRPRPRPGNFPRP	-0.226
RRIRPRPPRLPRPRPRPKLLPRP	-0.0549
RRIRVRPPRLPRPRPRPHYHPRP	-0.397
RRIRARPPRLPRPRPRPHACPRP	0.066
RRIRQRPPRLPRPRPRPYFFPRP	-0.706
RRIRLRPPRLPRPRPRPVRQPRP	0.569

Sequence	shrunken log2 fold change
RRIRCRPPRLPRPRPRPTHIPRP	-0.326
RRIRQRPPRLPRPRPRPVMKPRP	-0.212
RRIRPRPPRLPRPRPRPMFLPRP	-0.269
RRIRGRPPRLPRPRPRPFMQPRP	0.165
RRIRGRPPRLPRPRPRPDSYPRP	0.0941
RRIRMRPPRLPRPRPRPACWPRP	1.06
RRIRDRPPRLPRPRPRPIHTPRP	-0.159
RRIRPRPPRLPRPRPRPSICPRP	-0.718
RRIRQRPPRLPRPRPRPSPMPRP	0.0696
RRIRRRPPRLPRPRPRPEMYPRP	0.0119
RRIRLRPPRLPRPRPRPGIGPRP	0.417
RRIRTRPPRLPRPRPRPNAYPRP	-0.195
RRIRCRPPRLPRPRPRPMYNPRP	-0.535
RRIRVRPPRLPRPRPRPQSHPRP	-0.613
RRIRYRPPRLPRPRPRPGPGPRP	0.304
RRIRNRPPRLPRPRPRPGGWPRP	0.662
RRIRARPPRLPRPRPRPLWCPRP	-0.264
RRIRRRPPRLPRPRPRPMNTPRP	-0.171
RRIRTRPPRLPRPRPRPPPWPRP	0.614
RRIRLRPPRLPRPRPRPPMCPRP	0.202
RRIRERPPRLPRPRPRPARMPRP	0.0587
RRIRARPPRLPRPRPRPTLWPRP	1.05
RRIRTRPPRLPRPRPRPFKLPRP	-0.0476
RRIRLRPPRLPRPRPRPFRQPRP	0.0662
RRIRKRPPRLPRPRPRPFYGPRP	-0.0306
